From the domain aggregation screens of Martell et al. (2025)

assay: soluble fraction after stress (log2 fold change); higher = more stays soluble; pooled small domains, quantitative proteomics; details: stress: pH 4
Method in brief: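 Pooled custom libraries of small protein domains were stressed at pH 4 and then measured by high-throughput quantitative proteomics. The fold change in the amount of each domain that stays soluble after the acid stress serves as a measure of aggregation propensity. Fold changes are given on a log2 scale, and higher values mean more of the domain stayed soluble.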

Compared with “HMYYNQGILKSGASVYGEPGITSSHRLEIPSGSFVDIVQEKDEWVYYEKNHVNHGWVLRENIYIPSL”, “HMYYQEDHDIILEETEDVTDPYLITLRGYIFLNNLQWVAARQAFLSADERFRHRHYSALIAPIMQTIDNAA” is lower in “soluble fraction (log2)” value: 0.23 for the first, -1.49 for the second.

For “HMYYSERILTILEERGISPYRVSKETGISQSVFSNWKRKPTSRITAANLERLADYLGLPVEVLTG”, the “soluble fraction (log2)” value was 0.134.
